Experimental findings from patent WO2012019024A2 (dated 2012) are described below.

For assay [1], the target named is T1, chL2-S2 chimeric human/murine HER-3 ECD Fc fusion (murine; human, UniProt Q61526 20-632).
T1 construct: also called chL2-S2-Fc; chimeric ECD comprising murine L1-S1 domains and human L2-S2 domains; not shown: murine IgG2A hinge, CH2, and CH3 region (pmuFc2ANL vector)
T1 chain: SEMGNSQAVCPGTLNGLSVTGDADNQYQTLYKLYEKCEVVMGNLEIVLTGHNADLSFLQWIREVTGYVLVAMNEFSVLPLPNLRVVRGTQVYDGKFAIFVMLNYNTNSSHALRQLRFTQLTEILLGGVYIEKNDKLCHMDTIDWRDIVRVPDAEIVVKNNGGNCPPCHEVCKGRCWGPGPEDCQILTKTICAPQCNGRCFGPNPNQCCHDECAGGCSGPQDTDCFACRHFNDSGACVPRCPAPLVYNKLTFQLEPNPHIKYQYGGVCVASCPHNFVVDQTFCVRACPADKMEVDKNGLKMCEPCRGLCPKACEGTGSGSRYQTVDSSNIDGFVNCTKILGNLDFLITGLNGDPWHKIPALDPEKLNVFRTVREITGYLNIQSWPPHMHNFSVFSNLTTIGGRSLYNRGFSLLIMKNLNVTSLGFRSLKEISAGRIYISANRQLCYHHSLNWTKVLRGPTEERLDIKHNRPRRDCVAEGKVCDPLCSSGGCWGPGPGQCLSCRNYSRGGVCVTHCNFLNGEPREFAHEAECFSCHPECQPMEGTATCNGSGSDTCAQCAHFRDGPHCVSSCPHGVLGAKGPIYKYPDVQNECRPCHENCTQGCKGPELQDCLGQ
In words: ELISA on chL2-S2 Fc.

Assay [2] deals with T2, chL1-S1 chimeric human/murine HER-3 ECD Fc fusion (human; murine, UniProt P21860 20-632).
T2 construct: also called chLl-Sl; chimeric ECD comprising human L1-S1 domains and murine L2-S2 domains; not shown: murine IgG2A hinge, CH2, and CH3 region (pmuFc2ANL vector)
T2 chain: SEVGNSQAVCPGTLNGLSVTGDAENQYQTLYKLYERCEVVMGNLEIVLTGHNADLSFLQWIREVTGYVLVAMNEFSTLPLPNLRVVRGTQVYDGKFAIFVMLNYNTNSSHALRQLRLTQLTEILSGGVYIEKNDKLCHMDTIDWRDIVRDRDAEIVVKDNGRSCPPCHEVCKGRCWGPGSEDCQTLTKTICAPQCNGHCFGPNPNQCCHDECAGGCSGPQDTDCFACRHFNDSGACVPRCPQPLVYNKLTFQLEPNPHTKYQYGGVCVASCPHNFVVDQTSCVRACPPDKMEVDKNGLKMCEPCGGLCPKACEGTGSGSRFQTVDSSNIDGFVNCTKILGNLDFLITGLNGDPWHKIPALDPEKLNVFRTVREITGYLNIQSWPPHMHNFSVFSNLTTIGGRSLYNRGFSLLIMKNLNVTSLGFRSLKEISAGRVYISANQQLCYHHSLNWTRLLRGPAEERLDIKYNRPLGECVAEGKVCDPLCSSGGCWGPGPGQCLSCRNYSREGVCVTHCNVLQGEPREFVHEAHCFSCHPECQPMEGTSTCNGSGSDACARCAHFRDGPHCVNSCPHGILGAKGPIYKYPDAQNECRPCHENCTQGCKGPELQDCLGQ
Briefly: ELISA on chL1-S1 Fc (Figure 30). On the technique in general: An ELISA detects its analyte on a solid surface through an enzyme-linked reagent.

B1: huHER3-10 antibody (antibody, V domains shown)
VH: QVQLVQSGPEVVKPGVSMKISCKASGYTFTDYTMNWVKQSPGQNLEWIGLINPYNDITAYNQKFQGKATLSVDKSSSTAYMELLSLTSEDSAVYYCARRGPRGAWFAYWGQGTLVTVSA
VL: DIVLTQSPASLAVSPGQRATISCRASTSVYNYGNSFMHWYQQMPGQPPKLLIYLASNLESGVPARFSGSGSRTDFTLTIDPVEANDAATYYCQQNSEDPWTFGQGTKLEIKR
notes: Recombinant humanized antibody with human constant regions; also called huHer-10; humanized (resurfaced) HER3-10
As for B1, the values for the binding result in assay [1] and in assay [2] were “no binding” and “binds”, respectively.
